Biological target: Vδ1 chain of the γδ TCR on Vδ1+ γδ T cells (human)
Test: cell-based or functional assay

T cell degranulation (EC50 µg/ml - 3 donors) [µg/mL] | Binder | Killing assay (EC50 µg/ml - 2 or 3 donors) [µg/mL]
0.002 | 1245_P02_G04 (antibody, human IgG1, V domains shown) VH: QVQLQQSGPGLVKPSQTLSLTCAISGDSVSSKSAAWNWIRQSPSRGLEWLGRTYYRSKWSTDYAASVKSRITINPDTSKNQLSLQLNSVTPEDTAVYYCARTWSGYVDVWGQGTLVTVSS VL: DIQMTQSPPALSASVGDRVTITCRASQDINDWLAWYQHKPGKAPKLLIYDASSLESGVPSRFSGSGSGTEFTLTISSLQPDDFATYYCQQSYSTPQVTFGQGTRLEIK | 0.1
– | 1252_P01_C08 (antibody, human IgG1, V domains shown) VH: EVQLLESGGGLVQPGRSLRLSCAASGFTVSSNYMSWVRQAPGKGLEWVSVIYSGGSTYYADSVKGRFTISRDNSKNTLYLQMNSLRAEDTAVYYCASPIELGAFDIWGQGTLVTVSS VL: SSYELTQPPSVSVAPGKTARITCGGNNIGSQSVHWYQQKPGQAPMLVIYYDSDRPSGIPERFSGSNSGNTATLTISRVEAGDEADYYCQVWDSSSDHVVFGGGTKLTVL | 0.02
0.005 | 1139_P01_E04 (antibody, human IgG1, V domains shown) VH: QVQLQQSGPGLVKPSQTLSLTCAISGDSVSSNSAAWNWIRQSPSRGLEWLGRTYYRSKWYNDYAVSVRSRITINPDTSKNQFSLQLNSVTPEDTAVYYCARSWNDAFDIWGQGTTVTVSS VL: DIVMTQSPSTLSASIGDRVTITCRAGQSISTWLAWYQQKPGKAPKLLIYDASSLESGVPLRFSGSGSGTDFTLTISSLQPEDFATYYCQQSYSTPLTFGGGTKVEIK | –
0.001 | 1245_P01_G09 (antibody, human IgG1, V domains shown) VH: QVQLQQSGPGLVKPSQTLSLTCAISGDSVSSNSAAWNWIRQSPSRGLEWLGRTYYGSKWYNEYALSVKSRIIINPDTSKNQFSLQLNSVTPEDTAVYYCARDYYYSMDVWGQGTLVTVSS VL: DIVMTQSPSTLSASIGDRVTITCRAGQSISTWLAWYQQKPGKAPKLLIYDASSLESGVPLRFSGSGSGTEFTLAISSLQPDDFATYYCQQSYSTPVTFGQGTKVEIK | –
0.001 | 1245_P01_G06 (antibody, V domains shown) VH: QVQLVESGGGLVKPGGSLRLSCAASGFTFSDYYMSWIRQAPGKGLEWVSYISSSGSTIYYADSVKGRFTISRDNAKNSLYLQMNSLRAEDTAVYYCARHSWNDAFDVWGQGTLVTVSS VL: not shown | –
– | 1245_P01_E07 (antibody, human IgG1, V domains shown) VH: QVQLVESGGGLVKPGGSLRLSCAASGFTFSDYYMSWIRQAPGKGLEWVSYISSSGSTIYYADSVKGRFTISRDNAKNSLYLQMNSLRAEDTAVYYCARVDYADAFDIWGQGTLVTVSS VL: DIQMTQSPSSLSASVGDRVTIACRAGQSIGTYLNWYQQKPGKAPKLLIYVASSLQSGVPSRFSGSGSGTEFTLTISSLQPEDFATYYCQQSYSTLLTFGRGTKVEIK | 0.06
